Patent US20230242673A1 (published 2023)

B1: ch7D1 IgG (antibody, V domains shown)
VH: EVKLVESGAELVRSGASVKLSCTASGFNIKDYYMHWVKQRPEQGLEWIGYIDPENGDTEYAPKFQGKATMTADTSSNTAYLQLSSLTSEDTAVYYCRSSPFTYWGQGTLVTVSA
VL: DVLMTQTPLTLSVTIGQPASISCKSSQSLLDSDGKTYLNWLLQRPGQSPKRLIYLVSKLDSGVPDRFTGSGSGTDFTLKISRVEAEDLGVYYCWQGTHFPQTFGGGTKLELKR
B2: hz7D1.11 IgG (antibody, V domains shown)
VH: QVQLVQSGAEVKKPGASVKVSCKASGFNIKDYYMHWVRQAPGQGLEWIGYIDPENGDTEYAPKFQGRATMTADTSISTAYMELSRLRSDDTAVYYCRSSPFTYWGQGTLVTVSS
VL: DVVMTQSPLSLPVTLGQPASISCKSSQSLLDSDGKTYLNWLQQRPGQSPRRLIYLVSKLDSGVPDRFSGSGSGTDFTLKISRVEAEDVGVYYCWQGTHFPQTFGGGTKVEIKR
B3: hz7D1.22 IgG (antibody, V domains shown)
VH: QVQLVQSGAEVKKPGASVKVSCKASGYTFKDYYMHWVRQAPGQGLEWMGYIDPENGDTEYAPKFQGRVTMTADTSISTAYMELSRLRSDDTAVYYCRSSPFTYWGQGTLVTVSS
VL: DVVMTQSPLSLPVTLGQPASISCKSSQSLLDSDGKTYLNWFQQRPGQSPRRLIYLVSKLDSGVPDRFSGSGSGTDFTLKISRVEAEDVGVYYCWQGTHFPQTFGGGTKVEIKR

Experiments:
[1] = target: T1, original PCSK9 (PCSK9 (human) recombinant protein, Abnova Cat No: H00255738-P01) (UniProt Q8NBP7 31-692); test: ELISA; 1st experiment
[2] = target: T1, original PCSK9 (PCSK9 (human) …); test: ELISA; mean of two experiments, ±0.028
[3] = target: T1, original PCSK9 (PCSK9 (human) …); test: ELISA; 2nd experiment
[4] = target: T1, original PCSK9 (PCSK9 (human) …); test: ELISA; mean of two experiments, ±0.000
[5] = target: T1, original PCSK9 (PCSK9 (human) …); test: ELISA; mean of two experiments, ±0.014

T1 sequence (Q8NBP7 other isoform, or with tags, fused parts or gaps): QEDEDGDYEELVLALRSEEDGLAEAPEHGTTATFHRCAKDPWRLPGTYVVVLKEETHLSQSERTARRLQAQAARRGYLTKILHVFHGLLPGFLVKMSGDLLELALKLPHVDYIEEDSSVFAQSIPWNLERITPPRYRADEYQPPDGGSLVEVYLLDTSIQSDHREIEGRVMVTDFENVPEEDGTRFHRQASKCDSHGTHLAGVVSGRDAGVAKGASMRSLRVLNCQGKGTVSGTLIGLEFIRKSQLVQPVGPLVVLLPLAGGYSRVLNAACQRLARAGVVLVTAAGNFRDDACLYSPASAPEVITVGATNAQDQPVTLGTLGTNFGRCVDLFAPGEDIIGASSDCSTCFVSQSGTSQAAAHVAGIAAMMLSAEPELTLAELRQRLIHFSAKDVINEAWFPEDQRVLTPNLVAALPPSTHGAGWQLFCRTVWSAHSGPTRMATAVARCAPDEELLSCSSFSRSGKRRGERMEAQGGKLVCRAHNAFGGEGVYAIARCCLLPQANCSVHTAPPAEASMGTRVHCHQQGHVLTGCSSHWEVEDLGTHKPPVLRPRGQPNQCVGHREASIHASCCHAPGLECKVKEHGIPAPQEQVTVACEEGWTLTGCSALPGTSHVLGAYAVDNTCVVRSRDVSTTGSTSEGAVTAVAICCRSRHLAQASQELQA

Row | Binder | EC50 [1] | EC50 [2] | EC50 [3] | EC50 [4] | EC50 [5]
1 | B1 | 0.36 µg/mL | 0.38 µg/mL | 0.4 µg/mL |  | 
2 | B2 | 0.13 µg/mL |  | 0.13 µg/mL | 0.13 µg/mL | 
3 | B3 | 0.19 µg/mL |  | 0.17 µg/mL |  | 0.18 µg/mL
